Reference: PMC13598225, “Alternative splicing of synaptotagmin 7 regulates oligomerization and short-term synaptic plasticity” (Proceedings of the National Academy of Sciences of the …, 2026)

Biological target: T1, α-syt7cyto immobilised for HaloTag pull-down (UniProt Q9R0N7-1 38-403)
T1 construct: synaptotagmin 7, α splice variant, cytoplasmic domain; The sentence on syt1-fl says only 'immobilized syt7'; also called immobilized syt7
Test: pull-down; HaloTag pull-down; syt7 immobilised; syt1-fl reconstituted into liposomes; Ca2+ against EGTA
Details: both partners purified

T1 sequence (Q9R0N7 38-403): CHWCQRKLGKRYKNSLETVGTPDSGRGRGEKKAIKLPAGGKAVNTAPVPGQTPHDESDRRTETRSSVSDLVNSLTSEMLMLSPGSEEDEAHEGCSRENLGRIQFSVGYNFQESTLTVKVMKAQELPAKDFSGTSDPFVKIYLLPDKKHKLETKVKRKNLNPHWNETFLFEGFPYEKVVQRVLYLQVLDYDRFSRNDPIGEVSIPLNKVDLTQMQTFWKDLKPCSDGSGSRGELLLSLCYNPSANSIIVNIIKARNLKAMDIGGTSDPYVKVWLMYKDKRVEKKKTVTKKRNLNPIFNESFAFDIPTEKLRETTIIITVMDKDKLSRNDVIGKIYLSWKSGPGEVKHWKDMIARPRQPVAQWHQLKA

binding in Ca2+ relative to EGTA (ratio): 1.46 ± 0.15
B1: syt1-fl reconstituted into liposomes (full-length synaptotagmin 1) (natural protein, UniProt P21707 1-421, looked up)
chain: MVSASHPEALAAPVTTVATLVPHNATEPASPGEGKEDAFSKLKQKFMNELHKIPLPPWALIAIAIVAVLLVVTCCFCVCKKCLFKKKNKKKGKEKGGKNAINMKDVKDLGKTMKDQALKDDDAETGLTDGEEKEEPKEEEKLGKLQYSLDYDFQNNQLLVGIIQAAELPALDMGGTSDPYVKVFLLPDKKKKFETKVHRKTLNPVFNEQFTFKVPYSELGGKTLVMAVYDFDRFSKHDIIGEFKVPMNTVDFGHVTEEWRDLQSAEKEEQEKLGDICFSLRYVPTAGKLTVVILEAKNLKKMDVGGLSDPYVKIHLMQNGKRLKKKKTTIKKNTLNPYYNESFSFEVPFEQIQKVQVVVTVLDYDKIGKNDAIGKVFVGYNSTGAELRHWSDMLANPRRPIAQWHTLQVEEEVDAMLAVKK
notes: synaptotagmin 1, full length (fl); Construct and host are in SI Appendix; source: reconstituted into liposomes
